Assay in all cases: cell-based or functional assay
In one experiment the target is hGLP-1R (Homo sapiens, UniProt P43220).
Experiment [1] addresses human glucagon receptor (human) (UniProt P47871).
For experiment [2], the target named is T1, human GIP receptor (human) (UniProt P48546).
T1 sequence (looked up): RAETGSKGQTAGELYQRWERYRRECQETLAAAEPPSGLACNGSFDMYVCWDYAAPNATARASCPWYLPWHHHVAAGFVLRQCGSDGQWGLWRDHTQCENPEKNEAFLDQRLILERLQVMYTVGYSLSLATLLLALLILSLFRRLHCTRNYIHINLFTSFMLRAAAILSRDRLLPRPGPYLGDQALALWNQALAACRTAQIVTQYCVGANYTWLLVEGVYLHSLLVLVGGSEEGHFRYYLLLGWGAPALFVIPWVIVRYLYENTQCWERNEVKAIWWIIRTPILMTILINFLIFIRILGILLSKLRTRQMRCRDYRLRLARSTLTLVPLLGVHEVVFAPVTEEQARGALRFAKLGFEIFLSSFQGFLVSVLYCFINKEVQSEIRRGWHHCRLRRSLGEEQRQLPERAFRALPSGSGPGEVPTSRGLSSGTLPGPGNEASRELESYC

Sequence of human glucagon receptor (human) (P47871 26-477): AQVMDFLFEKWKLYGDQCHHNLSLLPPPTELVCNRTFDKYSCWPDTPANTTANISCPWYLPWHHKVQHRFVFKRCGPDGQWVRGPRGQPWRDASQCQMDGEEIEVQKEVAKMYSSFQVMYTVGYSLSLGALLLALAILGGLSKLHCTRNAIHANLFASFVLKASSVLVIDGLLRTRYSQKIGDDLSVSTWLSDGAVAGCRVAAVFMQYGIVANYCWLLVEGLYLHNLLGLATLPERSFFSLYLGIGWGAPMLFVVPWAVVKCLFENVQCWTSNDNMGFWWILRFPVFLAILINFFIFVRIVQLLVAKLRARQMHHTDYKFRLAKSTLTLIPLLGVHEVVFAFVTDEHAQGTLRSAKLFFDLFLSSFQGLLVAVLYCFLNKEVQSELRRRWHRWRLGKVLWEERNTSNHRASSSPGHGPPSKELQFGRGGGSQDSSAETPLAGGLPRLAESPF
Sequence of hGLP-1R (P43220 24-463): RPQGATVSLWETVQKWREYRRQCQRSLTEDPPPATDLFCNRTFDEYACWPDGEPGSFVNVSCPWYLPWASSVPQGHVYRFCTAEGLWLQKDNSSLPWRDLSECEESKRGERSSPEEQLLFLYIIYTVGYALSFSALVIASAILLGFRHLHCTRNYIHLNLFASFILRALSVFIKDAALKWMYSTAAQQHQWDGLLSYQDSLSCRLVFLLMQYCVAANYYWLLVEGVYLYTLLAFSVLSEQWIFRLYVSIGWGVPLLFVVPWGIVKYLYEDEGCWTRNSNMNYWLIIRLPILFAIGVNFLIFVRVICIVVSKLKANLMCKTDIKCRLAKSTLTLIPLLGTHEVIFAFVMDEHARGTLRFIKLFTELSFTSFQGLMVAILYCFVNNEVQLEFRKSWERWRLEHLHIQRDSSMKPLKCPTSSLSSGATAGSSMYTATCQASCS

B1: Example 1198 (peptide)
chain: YXQGTXTSDXXIXLDXKAQXEFIEXLIEGGPPSXXPPPSGSE
modifications: non-natural residues; lysine acylated AEEA-γGlu-C18 diacid; C-terminal amide; synthetic construct; SITE 2: note = 2-Aminoisobutyric Acid; SITE 6: note = alpha-methyl-2-fluoro-L-phenylalanine; SITE 10: note = 3-(4-Pyridyl)-L-alanine; SITE 11: note = alpha-methyl-L-serine; SITE 13: note = alpha-methyl-leucine; SITE 16: note = L-ornithine; SITE 17: note = Lysine is chemically mo
Regarding B1, the figures for the Relative cAMP EC50 (with hGLP-1R; in experiment [1]; in experiment [2]) were 0.475 nM, 1.8 nM and 0.00663 nM, respectively. Moreover, the cAMP Rel EC50 (in the presence of 1% HSA) came to 61 nM with hGLP-1R, 314 nM in experiment [1] and 0.67 nM in experiment [2].

B2: Example 1212 (peptide)
chain: YXQGTXTSDXXIXLDXXAQXEFIEXLIEGGPSSGAPPPSGSE
modifications: synthetic construct; SITE 2: note = 2-Aminoisobutyric Acid; SITE 6: note = alpha-methyl-2-fluoro-L-phenylalanine; SITE 10: note = 3-(4-Pyridyl)-L-alanine; SITE 11: note = alpha-methyl-L-serine; SITE 13: note = alpha-methyl-leucine; SITE 16: note = L-ornithine; SITE 17: note = Ornithine is chemically
Turning to B2, the Relative cAMP EC50 is 0.357 nM with hGLP-1R, 1.71 nM in experiment [1] and 0.00702 nM in experiment [2]. In addition, the results for the cAMP Rel EC50 (1% HSA) (with hGLP-1R; in experiment [1]; in experiment [2]) were 38.2 nM, 230 nM and 0.614 nM, respectively.

B3: Example 1233 (peptide)
chain: YXQGTXTSDXXIXLDXQAQXEFIEXLIEGGPSSGAPPPSGSE
modifications: not fully specified; synthetic construct; SITE 2: note = 2-Aminoisobutyric Acid; SITE 6: note = alpha-methyl-2-fluoro-L-phenylalanine; SITE 10: note = 3-(4-Pyridyl)-L-alanine; SITE 11: note = alpha-methyl-L-serine; SITE 13: note = alpha-methyl-leucine; SITE 16: note = L-ornithine; SITE 20: note = 3-(4-Pyridyl)-L-alanine
Turning to B3, the Relative cAMP EC50 with hGLP-1R was 1.09 nM; in experiment [1], 9.48 nM; in experiment [2], 0.012 nM. Besides, the cAMP Rel EC50 (1% HSA) in the experiment with hGLP-1R worked out at 1.06 nM; in experiment [1], 9.9 nM; in experiment [2], 0.00988 nM.

B4: Example 1200 (peptide)
chain: YXQGTXTSDXXIXLDXKAQXEFIEXLIEGGPPSXEPPPSGSE
modifications: non-natural residues, acylated Lys (AEEA-γGlu-C18 diacid), C-terminal amide; synthetic construct; SITE 2: note = 2-Aminoisobutyric Acid; SITE 6: note = alpha-methyl-2-fluoro-L-phenylalanine; SITE 10: note = 3-(4-Pyridyl)-L-alanine; SITE 11: note = alpha-methyl-L-serine; SITE 13: note = alpha-methyl-leucine; SITE 16: note = L-ornithine; SITE 17: note = Lysine is chemically mo
With B4, the Relative cAMP EC50 with hGLP-1R stood at 0.727 nM; in experiment [1] it was 1.5 nM; in experiment [2], 0.00883 nM. The cAMP Rel EC50 (in the presence of 1% HSA) is 91.4 nM with hGLP-1R, 278 nM in experiment [1] and 0.896 nM in experiment [2].

B5: Example 1191 (peptide)
chain: YXQGTXTSDXXIXLDXKAQXEFIEXLIEGGPPSGEPPPEGE
modifications: non-natural residues; lipidated Lys AEEA-γGlu-C18 diacid; C-term amide; synthetic construct; SITE 2: note = 2-Aminoisobutyric Acid; SITE 6: note = alpha-methyl-2-fluoro-L-phenylalanine; SITE 10: note = 3-(4-Pyridyl)-L-alanine; SITE 11: note = alpha-methyl-L-serine; SITE 13: note = alpha-methyl-leucine; SITE 16: note = L-ornithine; SITE 17: note = Lysine is chemically mo
Regarding B5, the Relative cAMP EC50 was found to be 0.945 nM in the experiment with hGLP-1R, 3.06 nM in experiment [1] and 0.00992 nM in experiment [2]. Also, the cAMP Rel EC50 (in the presence of 1% HSA) came out at 82.3 nM with hGLP-1R, 243 nM in experiment [1] and 0.931 nM in experiment [2].

B6: Example 1209 (peptide)
chain: YXQGTXTSDXSIXLDXXAQXXFIEXLIEGGPSSGEPPPETE
modifications: synthetic construct; SITE 2: note = 2-Aminoisobutyric Acid; SITE 6: note = alpha-methyl-2-fluoro-L-phenylalanine; SITE 10: note = 3-(4-Pyridyl)-L-alanine; SITE 13: note = alpha-methyl-leucine; SITE 16: note = L-ornithine; SITE 17: note = Ornithine is chemically modified through conjugation of the ep
Turning to B6, the figures for the Relative cAMP EC50 (with hGLP-1R; in experiment [1]; in experiment [2]) were 0.41 nM, 0.97 nM and 0.00819 nM, respectively. Further, the figures for the cAMP Rel EC50 (1% HSA) (with hGLP-1R; in experiment [1]; in experiment [2]) were 37.7 nM, 124 nM and 0.565 nM, respectively.

B7: Example 1211 (peptide)
chain: YXQGTXTSDXXIXLDXXAQXEFIEXLIEGGPSSGAPPPSGS
modifications: synthetic construct; SITE 2: note = 2-Aminoisobutyric Acid; SITE 6: note = alpha-methyl-2-fluoro-L-phenylalanine; SITE 10: note = 3-(4-Pyridyl)-L-alanine; SITE 11: note = alpha-methyl-L-serine; SITE 13: note = alpha-methyl-leucine; SITE 16: note = L-ornithine; SITE 17: note = Ornithine is chemically
In the case of B7, the results for the Relative cAMP EC50 (with hGLP-1R; in experiment [1]; in experiment [2]) were 0.276 nM, 1.45 nM and 0.00592 nM, respectively. Further, the cAMP Rel EC50 (1% HSA) was found to be 33.2 nM with hGLP-1R, 211 nM in experiment [1] and 0.489 nM in experiment [2].

B8: Example 1194 (peptide)
chain: YXQGTXTSDXXIXLDXKAQXEFIEXLIEGGPPSXXPPPEGE
modifications: non-natural residues; lipidated Lys; C-terminal amide; synthetic construct; SITE 2: note = 2-Aminoisobutyric Acid; SITE 6: note = alpha-methyl-2-fluoro-L-phenylalanine; SITE 10: note = 3-(4-Pyridyl)-L-alanine; SITE 11: note = alpha-methyl-L-serine; SITE 13: note = alpha-methyl-leucine; SITE 16: note = L-ornithine; SITE 17: note = Lysine is chemically mo
For the molecule B8, the Relative cAMP EC50 in the experiment with hGLP-1R was determined as 0.51 nM; in experiment [1] it was 2.02 nM; in experiment [2], 0.00725 nM. Besides, the cAMP Rel EC50 (in the presence of 1% HSA) came out at 57.4 nM with hGLP-1R, 215 nM in experiment [1] and 0.759 nM in experiment [2].

B9: Example 1208 (peptide)
chain: YXQGTXTSDXXIXLDXKAQXEFIEXLIEGGPSSGEPPPSGS
modifications: not fully specified; synthetic construct; SITE 2: note = 2-Aminoisobutyric Acid; SITE 6: note = alpha-methyl-2-fluoro-L-phenylalanine; SITE 10: note = 3-(4-Pyridyl)-L-alanine; SITE 11: note = alpha-methyl-L-serine; SITE 13: note = alpha-methyl-leucine; SITE 16: note = L-ornithine; SITE 17: note = Lysine is chemically mo
For the molecule B9, the Relative cAMP EC50 worked out at 0.526 nM in the experiment with hGLP-1R, 3.52 nM in experiment [1] and 0.00907 nM in experiment [2]. Moreover, the values for the cAMP Rel EC50 (1% HSA) (in the experiment with hGLP-1R; in experiment [1]; in experiment [2]) were 44.8 nM, 451 nM and 0.786 nM, respectively.

B10: Example 1195 (peptide)
chain: YXQGTXTSDXXIXLDXKAQXEFIEXLIEGGPPSXXPPPXGE
modifications: non-natural residues; acylated Lys; C-terminal amide; synthetic construct; SITE 2: note = 2-Aminoisobutyric Acid; SITE 6: note = alpha-methyl-2-fluoro-L-phenylalanine; SITE 10: note = 3-(4-Pyridyl)-L-alanine; SITE 11: note = alpha-methyl-L-serine; SITE 13: note = alpha-methyl-leucine; SITE 16: note = L-ornithine; SITE 17: note = Lysine is chemically mo
Turning to B10, the Relative cAMP EC50 with hGLP-1R stood at 0.367 nM; in experiment [1], 1.74 nM; in experiment [2], 0.00708 nM. Besides, the cAMP Rel EC50 (in the presence of 1% HSA) with hGLP-1R amounted to 44.2 nM; in experiment [1], 242 nM; in experiment [2], 0.637 nM.

B11: Example 1202 (peptide)
chain: YXQGTXTSDXXIXLDXKAQXEFIQXLIEGGPSSGAPPPSGS
modifications: synthetic construct; SITE 2: note = 2-Aminoisobutyric Acid; SITE 6: note = alpha-methyl-2-fluoro-L-phenylalanine; SITE 10: note = 3-(4-Pyridyl)-L-alanine; SITE 11: note = alpha-methyl-L-serine; SITE 13: note = alpha-methyl-leucine; SITE 16: note = L-ornithine; SITE 17: note = Lysine is chemically mo
Consider B11, for which the Relative cAMP EC50 with hGLP-1R is 0.237 nM; in experiment [1], 0.5 nM; in experiment [2], 0.00635 nM. Besides, the cAMP Rel EC50 (1% HSA) with hGLP-1R stood at 23.1 nM; in experiment [1], 70.3 nM; in experiment [2] it was 0.471 nM.

The record behind these values is patent US20240270821A1, “GIP/GLP1/GCG TRI-RECEPTOR AGONISTS AND USES THEREOF” (priority 2023, published 2024).
